{"source": "patent US20190016822A1", "about": "(MEDITOPE BIOSCIENCES, published 2019)", "proteins": {"B1": {"name": "SnAP-body variant 1 (anti-CD33) (antibody, human IgG1, kappa)", "heavy": "not shown", "light": "QIVLTQSPAIMSASPGEKVTITCSASSSISYMHWFQQRTNGSPRLWIYTTSNLASGVPARFSGSGSGTSYSLTISRMEAEDEADYYCHQRSTYPLTFGAGTKLELKRTVAAPSVFIFPPSDEQLKSGTASVVCLLNNFYPREAKVQWKVDNALQSGNSQESVTEQDSKDSTYSLSSTLTLSKADYEKHKVYACEVTHQGLSSPVTKSFNRGEC", "notes": "also called self-crosslinking antibody; Anti-CD33 SnAP-body variant 1"}, "B2": {"name": "SnAP-body variant 2 (anti-CD33) (antibody, human IgG1, kappa)", "heavy": "not shown", "light": "B1 light", "notes": "also called self-crosslinking antibody; Anti-CD33 SnAP-body variant 2"}, "B3": {"name": "SnAP-body variant 3 (anti-CD33) (antibody, human IgG1, kappa)", "heavy": "not shown", "light": "B1 light", "notes": "also called self-crosslinking antibody"}, "B4": {"name": "control antibody (meditope-enabled gemtuzumab IgG1 without meditope or linker) (antibody)", "heavy": "not shown", "light": "B1 light", "notes": "IgG1; also called control gemtuzumab antibody; gemtuzumab control antibody"}}, "key": {"[1]": {"biological_target": "the molecule itself", "assay": "size-exclusion chromatography; self-crosslinking"}, "[2]": {"biological_target": "the molecule itself", "assay": "size-exclusion chromatography; self-association"}}, "data": [{"protein": "B1", "values": [{"measurement": "binding result", "setting": "[1]", "value": "binds"}]}, {"protein": "B2", "values": [{"measurement": "binding result", "setting": "[1]", "value": "binds"}]}, {"protein": "B3", "values": [{"measurement": "binding result", "setting": "[1]", "value": "binds"}]}, {"protein": "B4", "values": [{"measurement": "binding result", "setting": "[2]", "value": "no binding"}]}]}
